The record followed here is patent US20070275428A1.

Assay in all cases: cell-based or functional assay
The target of experiment [1] is IRS-1 phosphorylation domain (PTB peptide), 13 amino acid peptide including Y941 of insulin receptor substrate 1.
Experiment [2] deals with Akt kinase motif (AKM) peptide … of sensor AS1T.
In experiment [3] the target is non-phosphorylable Akt kinase motif … (alanine substitution) of sensor AS1A.

In the case of “SH2 domain of PI3 Kinase (substrate recognition domain) (from UniProt P27986 330-433)”, in experiment [1], the bioluminescence signal induction, split firefly IRS-1 sensor with (EAAAR)2 linker in CHO-IR cells implanted in nude mice, after insulin (fold induction) was 5 and the bioluminescence signal induction, split firefly IRS-1 sensor with (EAAAR)2 linker in CHO-IR cells implanted in nude mice, no insulin (fold induction) was determined as 1.3.

In experiment [2], “yeast phosphothreonine FHA2 binding domain (from UniProt P22216 601-664)” showed an FL activity of AS1T in 293T cells treated with PDGF for 30 minutes, relative to carrier control of 60 % decrease; a complemented FL activity of 293T/AS1T xenografts in nude mice 6 hours after 30 mg/kg perifosine, relative to carrier control treated mice of 60 % increase; a complemented FL activity of AS1T in BT474 cells treated with the PI-3K inhibitor LY294002 for 24 hours, relative to carrier control of 1.3 fold; a maximum induction of complemented FL activity of AS1T in response to LY294002 of 4 fold. For the same substance, in experiment [3], the complemented FL activity of 293T/AS1A xenografts in nude mice 6 hours after 30 mg/kg perifosine, relative to carrier control treated mice is 20 % decrease and the complemented FL activity of untreated 293T/AS1A cells relative to untreated 293T/AS1T cells is 10 fold.
